Data set [1] has as its system NC(=O)c1ccc[n+]([C@@H]2O[C@H](COP(=O)(O)OP(=O)(O)OC[C@H]3O[C@@H](n4cnc5c(N)ncnc54)[C@H](O)[C@@H]3O)[C@@H](O)[C@H]2O)c1. As to the kind of experiment: purified protein. As to conditions: 1 mM PAAld, 100 mM Tris-HCl pH 8.0, 100 mM KCl, 25 °C, varied: cofactor.
The subject of another data set is O=CCc1ccccc1. As to the kind of experiment: purified protein. As to conditions: 5 mM NAD+, 100 mM Tris-HCl pH 8.0, 100 mM KCl, 25 °C.

Here are results for 1 substance from PMC11291249, “Investigating the biosynthesis and roles of the auxin phenylacetic acid during Pseudomonas syringae-Arabidopsis thaliana pathogenesis” (Frontiers in Plant Science, 2024).

For orientation: Km means the substrate concentration at which the rate is half of its maximum. The kcat is the number of substrate molecules converted per active site and unit of time at saturation. For orientation: kcat/Km means the turnover number divided by the Michaelis constant.

“AldA (Pseudomonas syringae pv. tomato str. DC3000)”: in data set [1], the Km is 11.2 ± 1.2 µM, the kcat amounted to 1.4 ± 0.0183 s⁻¹ and the kcat/Km turned out to be 125000 M⁻¹ s⁻¹. In the data set with O=CCc1ccccc1, the Km was found to be 645 ± 113 µM, the kcat worked out at 18.7 ± 1.3 s⁻¹ and the kcat/Km amounted to 29000 M⁻¹ s⁻¹.
